Experimental data published in patent publication CN117820479A (BEILAI PHARMACEUTICAL CO LTD, dated 2024).

How the values were obtained:
[1] = target: IL-17RA and IL-17RC co-expressed on 293F-IL-17RA-IL-17Rc-ACT1-NFκB-Luc reporter cells (UniProt Q96F46); assay: FACS on cells overexpressing IL-17RA and IL-17RC
Biotin-IL-17A-His = target: T1, Biotin-IL-17A-His (UniProt Q16552 24-155, biotinylated (Biotin-IL-17A-His; site not stated)); assay: ELISA: antibody coated at 2 ug/mL, Biotin-IL-17A-His titrated from 10 ug/mL in 5-fold steps (7 points), HRP-streptavidin, OD450
T1 construct: also called 靶蛋白; not shown: His tag

[2] = target: IL-17A重组蛋白 (Human IL-17A重组蛋白, C端6×His标签) (human, UniProt Q16552 24-155, limits assumed); assay: cell-based or functional assay
IL-17A重组蛋白 (Human IL-17A重组蛋白, C端6×His标签) (human, UniProt Q16552 24-155, limits assumed), sequence (Q16552 other isoform, or with tags, fused parts or gaps limits assumed): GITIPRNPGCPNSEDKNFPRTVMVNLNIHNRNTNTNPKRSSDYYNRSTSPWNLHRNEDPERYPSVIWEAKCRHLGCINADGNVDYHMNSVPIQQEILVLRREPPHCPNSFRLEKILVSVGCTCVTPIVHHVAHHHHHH

T1 sequence (Q16552 24-155 limits assumed): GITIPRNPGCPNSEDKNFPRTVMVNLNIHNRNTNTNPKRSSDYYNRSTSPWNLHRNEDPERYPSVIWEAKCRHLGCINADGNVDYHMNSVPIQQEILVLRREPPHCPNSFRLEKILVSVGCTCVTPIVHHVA

阳性率 [1]	EC50 (Biotin-IL-17A-His)	IC50, 阻断Human IL-17A蛋白激活293F-IL-17RA-IL-17Rc-ACT1-NFκB-Luc (luciferase reporter) [2]	Molecule
> 90%			IL-17A重组蛋白 (Human IL-17A重组蛋白, C端6×His标签) (from UniProt Q16552 24-155) (ligand)
	10.1 µg/mL	1.36 µg/mL	Ixekizumab (阳性对照抗体) (antibody, human IgG4 S228P, kappa, V domains shown, Made in house from the variable regions cloned into pcDNA3.4-hIgG4 and pcDNA3.4-hIgKc vectors; also called 对照抗体Ixekizumab; 阳性抗体) VH: QVQLVQSGAEVKKPGSSVKVSCKASGYSFTDYHIHWVRQAPGQGLEWMGVINPMYGTTDYNQRFKGRVTITADESTSTAYMELSSLRSEDTAVYYCARYDYFTGTGVYWGQGTLVTVSS VL: DIVMTQTPLSLSVTPGQPASISCRSSRSLVHSRGNTYLHWYLQKPGQSPQLLIYKVSNRFIGVPDRFSGSGSGTDFTLKISRVEAEDVGVYYCSQSTHLPFTFGQGTKLEIKR
	2.42 µg/mL	0.759 µg/mL	串联抗体G12-1-F8 (IL-17A特异性串联抗体) (Fc fusion) EVQLVESGGGLVQPGGSLRLSCVAWGFSFSIYSVNWYRQAPGKERELVAGITKGGLKDYADSVKGRFTISRDNAKNAVYLRMNMLKPEDTAVYYCNAGRENGYWGQGTQVAVSTGGGGSGGGGSGGGGSEVQLVESGGGLVQPGGSLRLSCAASGFSIHIYAMGWYRQAPGKQRELVATITRGGVTNNADSVKGRFTISRDNAKNTAYLQMNSLKPEDTAVYYCNAGGTNGGYWGQGTQVTVSS
